In IntAct's records for PubMed 11864996:

B1: Forkhead box protein O3 (Homo sapiens), O43524 (parent)
chain: MAEAPASPAPLSPLEVELDPEFEPQSRPRSCTWPLQRPELQASPAKPSGETAADSMIPEEEDDEDDEDGGGRAGSAMAIGGGGGSGTLGSGLLLEDSARVLAPGGQDPGSGPATAAGGLSGGTQALLQPQQPLPPPQPGAAGGSGQPRKCSSRRNAWGNLSYADLITRAIESSPDKRLTLSQIYEWMVRCVPYFKDKGDSNSSAGWKNSIRHNLSLHSRFMRVQNEGTGKSSWWIINPDGGKSGKAPRRRAVSMDNSNKYTKSRGRAAKKKAALQTAPESADDSPSQLSKWPGSPTSRSSDELDAWTDFRSRTNSNASTVSGRLSPIMASTELDEVQDDDAPLSPMLYSSSASLSPSVSKPCTVELPRLTDMAGTMNLNDGLTENLMDDLLDNITLPPSQPSPTGGLMQRSSSFPYTTKGSGLGSPTSSFNSTVFGPSSLNSLRQSPMQTIQENKPATFSSMSHYGNQTLQDLLTSDSLSHSDVMMTQSDPLMSQASTAVSAQNSRRNVMLRNDPMMSFAAQPNQGSLVNQNLLHHQHQTQGALGGSRALSNSVSNMGLSESSSLGSAKHQQQSPVSQSMQTLSDSLSGSSLYSTSANLPVMGHEKFPSDLDLDMFNGSLECDMESIIRSELMDADGLDFNFDSLISTQNVVGLNVGNFTGAKQASSQSWVPG

Variants of: B1
Details: with 1433z_human YWHAZ

Row | Variant | effect of a mutation on the interaction
1 | T32A;S253A;S315A | disrupting interaction
